In test [1] the target is T1, His-tagged human Dpy-30 protein (full length) (human, UniProt Q9C005 1-99).
T1 construct: range 1-99; also called His-Dpy-30; HDpy-30; not shown: His tag and vector-encoded residues of pET-28a
The test can be described thus: Ni-NTA pulldown of co-expressed proteins, GST western blot. (Immunoblotting shows a protein as a band on a membrane.)

Test [2] has as its target T2, His-tagged human Dpy-30 domain only (Dpy-30 45-99) (human, UniProt Q9C005 45-99).
T2 construct: range 45-99; also called the Dpy-30 domain; Dpy-30 domain alone; not shown: His tag and vector-encoded residues of pET-28a
The test is described as above.

T1 sequence (Q9C005 whole entry): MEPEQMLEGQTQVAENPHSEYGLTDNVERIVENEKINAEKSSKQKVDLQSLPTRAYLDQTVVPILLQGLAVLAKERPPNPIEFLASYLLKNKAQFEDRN
T2 sequence (Q9C005 45-99): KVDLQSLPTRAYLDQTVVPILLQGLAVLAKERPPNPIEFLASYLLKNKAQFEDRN

B1: GST-tagged RSP3 280-316 with V300P mutation (other)
chain: PWLKEQAIGYLARGVVARRVPDKLVEDAAAALAANRS
notes: also called pRSP3V300P product; not shown: N-terminal GST tag (from pGEX-2T) and its junction
B1: the binding result in test [1] and in test [2] was “no binding” throughout.

Source of the values: patent US20130217613A1 (MARQUETTE UNIVERSITY, published 2013).
